Test results taken from PMC7022617, “Structural and Functional Aspects of G-Quadruplex Aptamers Which Bind a Broad Range of Influenza A Viruses”.

Target: hemagglutinin HA1 subunit H5 (recombinant, Abcam ab190125) (Influenza A virus A/Vietnam/1203/2004 …, UniProt Q6DQ33 17-346)
Experiment: SPR; 10 mM K+
Settings: protein: commercial

For TTGGGGTTATTTTGGGAGGGCGGGGGTT (structured_DNA) [RHA0385], the Kd was 13 ± 3 nM.

Work on TTGGGGTTATTAAGGGAGGGCGGGGGTT (structured_DNA) [G7-TTATTAA] yielded a Kd (parallel intramolecular G4) of 30 ± 10 nM.

Binder TTGGGGTAAGAAGGGAGGGCGGGGGTT (structured_DNA) [G7-TAAGAA] has a Kd of 60 ± 10 nM.

With TTGGGGTTAGGGAGGGCGGGGGTT (structured_DNA) [G7-TTA] the Kd was 20 ± 6 nM.
